Values quoted from earlier work, collected in publication PMC10466379.

Assays:
Test in all cases: not stated (values taken from the PKAD database; the article says PKAD values come mainly from NMR or IR titrations)
Details in all cases: not stated (the curated set excludes proteins with ligands, nucleic acids and structural metal ions)
His92 [1] = biological target: His92 (UniProt position 119, NGKTDHYLLEF)
His150 = His150 (UniProt position 177, LKLCSH-----)
His82 = His82 (UniProt position 109, DRPPKHSKDGN)
His104 = His104 (UniProt position 131, TFPDGHDYKFD)
Glu96 = Glu96 (UniProt position 123, DHYLLEFPTFP)
His36 = His36 (UniProt position 63, ESNSHHAPLSD)
His35 = His35 (UniProt position 62, AESNSHHAPLS)
His92 [2] = biological target: His92 (UniProt position 119, NGKTDHYLLQF)
His137 = His137 (UniProt position 164, CGIIAHTKENQ)
His50 = His50 (UniProt position 77, GSSYPHWFTNG)
Glu39 = Glu39 (UniProt position 121, FRLLLEDTPET)
Glu66 = Glu66 (UniProt position 148, FTKKMEENAKK)
His124 [3] = biological target: His124 (UniProt position 206, NTHEQHLRKSE)
His8 [4] = biological target: His8 (UniProt position 90, STKKLHKEPAT)
His121 = His121 (UniProt position 203, KPNNTHEQHLR)
His46 = His46 (UniProt position 128, TPETKHPKKGV)
His72 = His72 (UniProt position 73, GINTAHKARQV)
Glu103 = Glu103 (UniProt position 185, MVNEAEVRQGL)
His124 [5] = biological target: His124 (UniProt position 206, NTHEQHLRKAE)
Glu92 = Glu92 (UniProt position 174, RGLAYEYADGK)
His60 = His60 (UniProt position 60, NETQTHQQVGN)
Glu99 = Glu99 (UniProt position 181, ADGKMENEALV)
His124 [6] = biological target: His124 (UniProt position 206, NTHEQHLRASE)
Lys39 = Lys39 (UniProt position 39, EFPGGKIEMGE)
Glu36 = Glu36 (UniProt position 118, PMTFRELLVDT)
His8 [7] = biological target: His8 (UniProt position 90, STKKLHAEPAT)
Glu74 = Glu74 (UniProt position 156, AKKIEEEFDKG)

Substance	pKa (His124 [3])	pKa (His8 [4])	pKa (His121)	pKa (His46)	other results
alpha-sarcin H50Q/H137Q (parent PDB 1DE3) (Aspergillus giganteus (inferred from PDB 1DE3; not stated in the article); H50Q;H137Q)	–	–	–	–	pKa (His92 [1]): 7.4; pKa (His150): 7.6; pKa (His82): 7; pKa (His104): 7.3; pKa (Glu96): 5.4; pKa (His36): 7.3; pKa (His35): 6.3
alpha-sarcin E96Q (parent PDB 1DE3) (Aspergillus giganteus (inferred from PDB 1DE3; not stated in the article); E96Q)	–	–	–	–	pKa (His92 [2]): 7.2; pKa (His137): 5.9; pKa (His150): 7.9; pKa (His36): 7.3; pKa (His35): 6.3; pKa (His50): 6.4
alpha-sarcin H137Q (parent PDB 1DE3) (Aspergillus giganteus (inferred from PDB 1DE3; not stated in the article); H137Q)	–	–	–	–	pKa (His92 [1]): 7.1; pKa (His150): 7.7; pKa (His82): 7.4; pKa (His104): 6.6; pKa (Glu96): 5.7; pKa (His35): 6.3
staphylococcal nuclease variant V39E (parent PDB 2LKV) (Staphylococcus aureus (inferred from PDB 2LKV; not stated in the article); V39E)	–	–	–	–	pKa (Glu39): 8.2
staphylococcal nuclease variant V66E (parent PDB 2LKV) (Staphylococcus aureus (inferred from PDB 2LKV; not stated in the article); V66E)	–	–	–	–	pKa (Glu66): 8.5
staphylococcal nuclease Y91A (parent PDB 1STN) (Staphylococcus aureus (inferred from PDB 1STN; not stated in the article); Y91A)	5.82	6.42	5.32	6.52	–
staphylococcal nuclease D77A (parent PDB 1STN) (Staphylococcus aureus (inferred from PDB 1STN; not stated in the article); D77A)	5.77	6.44	5.89	6.43	–
staphylococcal nuclease E101A (parent PDB 1STN) (Staphylococcus aureus (inferred from PDB 1STN; not stated in the article); E101A)	5.04	6.49	5.26	6.4	–
bovine heart phosphotyrosyl phosphatase (low molecular weight PTPase) (Bos taurus)	–	–	–	–	pKa (His72): 9.19
staphylococcal nuclease variant L103E (parent PDB 2LKV) (Staphylococcus aureus (inferred from PDB 2LKV; not stated in the article); L103E)	–	–	–	–	pKa (Glu103): 8.9
staphylococcal nuclease S128A (parent PDB 1STN) (Staphylococcus aureus (inferred from PDB 1STN; not stated in the article); S128A)	–	6.53	5.25	6.49	pKa (His124 [5]): 5.71
staphylococcal nuclease variant I92E (parent PDB 2LKV) (Staphylococcus aureus (inferred from PDB 2LKV; not stated in the article); I92E)	–	–	–	–	pKa (Glu92): 9
family 11 xylanase (PDB 1H4G) (Bacillus agaradhaerens (inferred from PDB 1H4G; not stated in the article))	–	–	–	–	pKa (His60): 4.01
staphylococcal nuclease variant V99E (parent PDB 2LKV) (Staphylococcus aureus (inferred from PDB 2LKV; not stated in the article); V99E)	–	–	–	–	pKa (Glu99): 8.4
alpha-sarcin H50Q (parent PDB 1DE3) (Aspergillus giganteus (inferred from PDB 1DE3; not stated in the article); H50Q)	–	–	–	–	pKa (His92 [1]): 7.3; pKa (His137): 6.1; pKa (His150): 7.3; pKa (His82): 7.4; pKa (Glu96): 5; pKa (His35): 6.2
staphylococcal nuclease Y93F (parent PDB 1STN) (Staphylococcus aureus (inferred from PDB 1STN; not stated in the article); Y93F)	5.52	6.46	–	6.42	–
staphylococcal nuclease K127A (parent PDB 1STN) (Staphylococcus aureus (inferred from PDB 1STN; not stated in the article); K127A)	–	6.51	5.3	6.45	pKa (His124 [6]): 5.99
MutT protein (Escherichia coli (inferred from PDB 1MUT; not stated in the article))	–	–	–	–	pKa (Lys39): 8.4
staphylococcal nuclease variant L36E (parent PDB 2LKV) (Staphylococcus aureus (inferred from PDB 2LKV; not stated in the article); L36E)	–	–	–	–	pKa (Glu36): 8.7
staphylococcal nuclease D77N (parent PDB 1STN) (Staphylococcus aureus (inferred from PDB 1STN; not stated in the article); D77N)	5.81	6.29	5.77	6.53	–
staphylococcal nuclease Y91F (parent PDB 1STN) (Staphylococcus aureus (inferred from PDB 1STN; not stated in the article); Y91F)	5.65	6.36	6.04	6.39	–
staphylococcal nuclease Y93A (parent PDB 1STN) (Staphylococcus aureus (inferred from PDB 1STN; not stated in the article); Y93A)	5.68	6.45	5.94	6.48	–
staphylococcal nuclease E73A (parent PDB 1STN) (Staphylococcus aureus (inferred from PDB 1STN; not stated in the article); E73A)	5.63	6.47	5.24	6.51	–
staphylococcal nuclease K9A (parent PDB 1STN) (Staphylococcus aureus (inferred from PDB 1STN; not stated in the article); K9A)	5.67	–	5.48	6.47	pKa (His8 [7]): 6.73
staphylococcal nuclease variant V74E (parent PDB 2LKV) (Staphylococcus aureus (inferred from PDB 2LKV; not stated in the article); V74E)	–	–	–	–	pKa (Glu74): 7.8
